From PMC3996161

Molecular target: DraIII restriction endonuclease (Deinococcus radiophilus ATCC 27603)
Assay: crystal structure; DraIII incubated 1:1 with an 11-bp phosphorothioate canonical DNA duplex, SEC with 5 mmol/L MgCl2; crystals at 18°C, hanging drop, 0.1 mol/L Tris-Cl, 20% 2-propanol, 5% PEG 8000, pH 8.0; the DNA was not observed in the structure

stoichiometry N: 2
Substance: DraIII restriction endonuclease (enzyme)
